# Laboratory results taken from patent US10655124B2, “Proximity based methods for selection of binding partners” (THE SCRIPPS RESEARCH INSTITUTE, priority 2014, dated 2020).
# How the values were obtained:
# [1] = target: glucagon-like peptide 1 receptor (GLP1R) (Homo sapiens, UniProt P43220); experiment: Proximity based reaction assay, GLP1R-TEV cleavage site-transcription factor cell line, luciferase reporter; conditions: for S/N ratio and noise with different TEV cleavage sites: GLP1R (1-426) constructions, Exendin-4 ligand, 1-3 days post infection
# GLP1R = target: T1, GLP1R (Homo sapiens, UniProt P43220); experiment: Proximity based reaction assay, GLP1R constructions, tdTomato reporter, fluorescent microscopy; format: cell-based
# T1 construct: Four TEV cleavage sites that are cleaved with varying efficiency were used for the GLP1R (1-426) constructions; expressed in transfected cells
# From the text: Stable cell lines containing the tdTomato reporter gene under control of UAS and GLP1R constructions with different TEV cleavage sites were studied.
# CXCR4 = CXCR4 (Homo sapiens, UniProt P61073); experiment: Proximity based reaction assay with irrelevant receptor CXCR4 replacing GLP1R; format: cell-based; conditions: irrelevant G protein-coupled receptor control
# [2] = target: T2, Thrombopoietin receptor (TpoR) (Homo sapiens, UniProt P40238); experiment: Proximity based reaction assay, TpoR-TEV cleavage site-transcription factor cell line, luciferase reporter
# T2 construct: The coding region of TpoR or GLP1R was followed by the TEV protease cleavage site and the GAL4-VP16 transcription factor; expressed in transfected cells
# T2 sequence (P40238 26-635): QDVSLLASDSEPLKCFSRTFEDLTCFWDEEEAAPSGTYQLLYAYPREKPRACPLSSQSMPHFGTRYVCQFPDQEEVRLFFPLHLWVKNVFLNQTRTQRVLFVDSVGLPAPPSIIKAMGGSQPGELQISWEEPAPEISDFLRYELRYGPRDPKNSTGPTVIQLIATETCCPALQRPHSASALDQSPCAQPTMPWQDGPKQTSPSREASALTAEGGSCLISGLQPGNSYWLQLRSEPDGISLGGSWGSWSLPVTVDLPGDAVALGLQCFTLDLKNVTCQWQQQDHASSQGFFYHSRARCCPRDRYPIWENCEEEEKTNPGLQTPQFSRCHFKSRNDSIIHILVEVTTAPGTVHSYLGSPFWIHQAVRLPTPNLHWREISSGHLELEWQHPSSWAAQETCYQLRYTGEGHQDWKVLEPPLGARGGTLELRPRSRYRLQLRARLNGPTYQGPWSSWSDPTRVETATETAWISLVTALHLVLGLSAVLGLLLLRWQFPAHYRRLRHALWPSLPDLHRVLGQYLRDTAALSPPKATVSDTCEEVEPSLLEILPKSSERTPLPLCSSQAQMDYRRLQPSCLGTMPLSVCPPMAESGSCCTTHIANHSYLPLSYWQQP
# From the text: FIG. 2. Proximity based identification of Thrombopoietin receptor (TpoR) activation. Stable cell lines harboring the luciferase reporter gene under control of UAS and TpoR-TEV cleavage site-transcription factor were established. Cells were transduced with lentivirus encoding Thrombopoietin (TPO) or the TpoR binding antibodies 3D9 or 14F12. Genes encoding different linkers including 3, 5, 6, 8, or 10 copies of (GGGGS) (SEQ ID NO:1) or a human IgG1 Fc were placed between the ligand and PDGFR trans-membrane domain. Luciferase activities were measured 2 days post infection. The cell line harboring GLP1R-TEV cleavage site-Transcription factor was used as negative cell control. The reaction was controlled by measuring the luminescence signals from control lentivirus carrying irrelevant antibodies with the same linker type and length.
# The stable cell line harboring both the UAS-reporter gene and receptor-cleavage site-transcription factor was plated in a 96 well plate at 20000 cells per well. Cells were infected by lentivirus carrying the ligand-TM-TEV protease at MOI equal to 1. Cells were cultured for 24-72 h before measuring the reporter gene activity. Luciferase activity was determined by using a luciferase assay system (Promega) while expression of tdTomato was observed by fluorescent microscopy.
# A similarly constructed irrelevant antibody was used as a negative control. […]
# [3] = system: glucagon-like peptide 1 receptor (GLP1R); experiment: Proximity based reaction assay, GLP1R-TEV cleavage site-transcription factor cell line, luciferase reporter; conditions: orthogonal control for non-specific interactions; membrane displayed ligand
# Chain of glucagon-like peptide 1 receptor (GLP1R) (Homo sapiens, UniProt P43220) (P43220 24-426): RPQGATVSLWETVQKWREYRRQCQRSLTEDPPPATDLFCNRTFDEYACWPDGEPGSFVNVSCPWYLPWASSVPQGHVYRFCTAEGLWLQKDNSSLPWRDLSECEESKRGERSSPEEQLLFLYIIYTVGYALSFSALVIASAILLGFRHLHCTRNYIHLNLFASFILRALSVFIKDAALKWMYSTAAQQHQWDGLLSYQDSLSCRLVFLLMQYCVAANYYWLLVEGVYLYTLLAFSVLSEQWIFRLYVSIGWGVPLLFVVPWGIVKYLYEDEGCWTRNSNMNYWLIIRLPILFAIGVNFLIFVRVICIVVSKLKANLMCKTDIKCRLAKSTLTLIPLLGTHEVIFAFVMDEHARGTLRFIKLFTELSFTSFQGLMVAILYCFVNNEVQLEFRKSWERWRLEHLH
# T1 sequence (P43220 24-426, species assumed): as the sequence (P43220 24-426) above
# Chain of CXCR4 (P61073 whole entry, species assumed): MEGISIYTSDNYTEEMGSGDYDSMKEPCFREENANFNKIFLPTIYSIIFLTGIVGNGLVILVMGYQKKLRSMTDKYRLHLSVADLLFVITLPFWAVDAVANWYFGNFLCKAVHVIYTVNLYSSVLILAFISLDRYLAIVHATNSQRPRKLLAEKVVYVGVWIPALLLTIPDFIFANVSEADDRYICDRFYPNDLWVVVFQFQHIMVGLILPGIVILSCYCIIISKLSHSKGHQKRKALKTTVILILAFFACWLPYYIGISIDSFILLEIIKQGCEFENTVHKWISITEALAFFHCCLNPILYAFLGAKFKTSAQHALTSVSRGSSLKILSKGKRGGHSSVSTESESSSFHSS
substance,measurement,setting,value
ENFYFQS (SEQ ID NO:5) [TEV 2],S/N ratio and noise with different TEV cleavage sites,[1],highest S/N ratio
same,"background with different TEV cleavage sites, tdTomato reporter",GLP1R,much lower background
ENLFFQS (SEQ ID NO:7) [TEV 4],S/N ratio and noise with different TEV cleavage sites,[1],very high level of noise
ENLYFQS (SEQ ID NO:4) [TEV1],S/N ratio and noise with different TEV cleavage sites,[1],very high level of noise
ENLYYQS (SEQ ID NO:6) [TEV 3],"background with different TEV cleavage sites, tdTomato reporter",GLP1R,much lower background
Exendin-4,response when CXCR4 replaced the GLP1R,CXCR4,no response
Thrombopoietin [TPO],transcription factor mediated signal relative to the irrelevant antibody control,"[2]; ligand displayed at plasma membrane via PDGFR TM-TEV protease, lentivirus, luciferase 2 days post infection",increased the transcription factor mediated signal
same,effect of linker length between ligand and TM domain on proximity-based signal,[2]; tandem repeats of GGGGS linker,generated similar signals
same,signal in cells bearing the wrong receptor (GLP1R-transcription factor fusion cell line),[3],did not increase the signal
Vc1.1,"signal to noise (S/N) ratio, non-specific peptide control",[1],even lower S/N
